The record followed here is US20060257852A1 (priority 2003, published 2006).

Test [1] has as its target nSh[change], Spike without transmembrane and cytoplasmic domains, with histidine tag (SARS coronavirus (Frankfurt isolate)) (UniProt P59594). In words: self-association; western blot of cell lysate. Background: Immunoblotting shows a protein as a band on a membrane.
For test [2] the target is unchanged. In words: self-association; non-heated SDS-PAGE and western blot.

With “nSh[change], Spike without transmembrane and cytoplasmic domains, with histidine tag (from UniProt P59594 14-1195)”, in test [1], the frequency of monomeric form worked out at 90% and the frequency of oligomeric form was 10%. The efficiency of oligomerization in test [2] was less than 10%.
